For orientation: stoichiometry N means the number of molecules, sites or subunits per partner or assembly.

The values below come from publication doi:10.1101/2024.03.09.584257.

This experiment has as its target ICP1 Cas1 (Vibrio cholerae phage ICP1_2011_A).

The substance ICP1 Cas1 (natural protein) displayed a stoichiometry N of 2.
